Assay results reported in article PMC7803741.
Read-outs that look alike come from different tables or passages of the source.

Tests used:
[1] = molecular target: clathrin adaptor protein AP2 (AP2 μ1 subunit as printed) (rat) (UniProt P84092); test: ITC; VP-ITC, 25 °C; 50 mM Tris pH 7.8, 100 mM NaCl, 1 mM EDTA, 1 mM DTT; γ2 subunit protein or peptide (100–200 μM) injected into GABARAP, GABARAPL1 or AP2 (10–20 μM) in the cell; one-site binding model
[2] = molecular target: GABAAR-associated protein (GABARAP) (mouse) (UniProt Q9DCD6); test: as above
[3] = molecular target: GABAAR-associated protein (GABARAP) (mouse) (UniProt Q9DCD6); test: as above; remark: listed apart in the source
GABARAP = GABARAP (UniProt Q9DCD6); test: ITC; conditions: reference: unphosphorylated synthetic γ2-GIM peptide; sites Y405
[4] = molecular target: clathrin adaptor protein AP2 (AP2 μ1 subunit as printed) (UniProt P84092); test: ITC; conditions: reference: unphosphorylated synthetic γ2-GIM peptide; sites Y405
[5] = molecular target: GABAA receptor-associated protein (GABARAP) (mouse) (UniProt Q9DCD6); test: ITC; VP-ITC at 25 °C; 50 mM Tris pH 7.8, 100 mM NaCl, 1 mM EDTA, 1 mM DTT; γ2 subunit protein or peptide (100-200 μM) injected into GABARAP, GABARAPL1 or AP2 (10-20 μM) in the cell; one-site binding model
GABAA receptor-associated protein (GABARAP) (mouse), sequence (Q9DCD6 whole entry): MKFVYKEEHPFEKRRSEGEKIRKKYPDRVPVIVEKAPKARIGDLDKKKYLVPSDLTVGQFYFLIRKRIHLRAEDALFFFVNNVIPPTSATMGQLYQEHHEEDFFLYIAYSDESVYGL

GABAAR-associated protein (GABARAP) (mouse), sequence (Q9DCD6 whole entry): as above
clathrin adaptor protein AP2 (AP2 μ1 subunit as printed) (rat), sequence (P84092 whole entry): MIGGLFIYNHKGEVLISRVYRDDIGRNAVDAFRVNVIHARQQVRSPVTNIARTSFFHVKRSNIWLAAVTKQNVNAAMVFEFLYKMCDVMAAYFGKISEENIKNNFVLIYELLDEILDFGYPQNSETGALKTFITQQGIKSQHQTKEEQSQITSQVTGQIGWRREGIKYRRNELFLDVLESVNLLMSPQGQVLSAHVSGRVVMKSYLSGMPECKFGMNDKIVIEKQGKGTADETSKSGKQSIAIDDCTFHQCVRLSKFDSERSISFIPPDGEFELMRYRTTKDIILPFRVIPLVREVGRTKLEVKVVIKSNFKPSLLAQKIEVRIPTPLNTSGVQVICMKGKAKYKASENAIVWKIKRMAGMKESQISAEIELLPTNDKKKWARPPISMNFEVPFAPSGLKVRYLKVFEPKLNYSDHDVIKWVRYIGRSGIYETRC
GABARAP, sequence (Q9DCD6 whole entry, looked up): as the sequence (Q9DCD6 whole entry) above
clathrin adaptor protein AP2 (AP2 μ1 subunit as printed), sequence (P84092 whole entry, looked up, tested part not stated): as the sequence (P84092 whole entry) above

Row | Substance | Kd [1] | Kd [2] | also measured
1 | synthesized γ2-GIM WT peptide (from UniProt P22723-2 398-415) | 0.45 µM | 3.6 µM | 
2 | GABAAR γ2 subunit GIM (GABARAP interacting motif, 398–415) (from UniProt P22723-2 398-415) (peptide) | 0.25 µM | 4.2 µM | Kd [3]: 4.9 µM
3 | synthetic pY403 γ2-GIM (from UniProt P22723-2 398-415) (peptide) | 5.2 µM | 0.82 µM | 
4 | GABAA receptor γ2 subunit (γ2-GABAAR; γ2-GIM = residues 398–415) γ2-GIM, 398-415 (from UniProt P22723-2) pY405 peptide |  |  | binding against the reference (GABARAP): lost; binding against the reference [4]: lost
5 | GABAA receptor γ2 subunit GIM (GABARAP interacting motif, 398-415) (peptide) |  |  | stoichiometry N [5]: 1.06
6 | recombinant of the TM3–TM4 ICD lacking the 424–441 octadecapeptide (from UniProt P22723-2 375-442) (domain or fragment) |  | 5.1 µM | 
